Assay results reported in patent US20240019424A1.

Legend:
[1] = biological target: biotinylated single chain human FcRn (beta-2-microglobulin-human FcRn fusion polypeptide with (GGGGS)4-peptidic linker and C-terminal His(10)-Avi-tag) (human) (UniProt P61769); test: SPR, C1 chip, scFcRn about 80 RU, Interaction Map spot; 150 mM NaCl; intermolecular binding 1+2′
[2] = biological target: biotinylated single chain human FcRn (beta-2-microglobulin-human FcRn fusion polypeptide with (GGGGS)4-peptidic linker and C-terminal His(10)-Avi-tag) (human) (UniProt P61769); test: SPR, C1 chip, scFcRn about 80 RU, Interaction Map spot; 400 mM NaCl; intermolecular binding 1+2′
[3] = biological target: biotinylated single chain human FcRn (beta-2-microglobulin-human FcRn fusion polypeptide with (GGGGS)4-peptidic linker and C-terminal His(10)-Avi-tag) (human) (UniProt P61769); test: SPR, C1 chip, scFcRn about 80 RU, Interaction Map spot; 400 mM NaCl and 20% (w/w) ethylene glycol; intermolecular binding 1+1′
[4] = biological target: biotinylated single chain human FcRn (beta-2-microglobulin-human FcRn fusion polypeptide with (GGGGS)4-peptidic linker and C-terminal His(10)-Avi-tag) (human) (UniProt P61769); test: SPR, C1 chip, scFcRn about 80 RU, Interaction Map spot; 400 mM NaCl; intermolecular binding 1+1′
[5] = biological target: biotinylated single chain human FcRn (beta-2-microglobulin-human FcRn fusion polypeptide with (GGGGS)4-peptidic linker and C-terminal His(10)-Avi-tag) (human) (UniProt P61769); test: SPR, C1 chip, scFcRn about 80 RU, Interaction Map spot; 400 mM NaCl; intramolecular binding 1+2
[6] = biological target: biotinylated single chain human FcRn (beta-2-microglobulin-human FcRn fusion polypeptide with (GGGGS)4-peptidic linker and C-terminal His(10)-Avi-tag) (human) (UniProt P61769); test: SPR, C1 chip, scFcRn about 80 RU, Interaction Map spot; 400 mM NaCl and 20% (w/w) ethylene glycol; intramolecular binding 1+2
[7] = biological target: biotinylated single chain human FcRn (beta-2-microglobulin-human FcRn fusion polypeptide with (GGGGS)4-peptidic linker and C-terminal His(10)-Avi-tag) (human) (UniProt P61769); test: SPR, C1 chip, scFcRn about 80 RU, Interaction Map spot; 400 mM NaCl; intramolecular binding 1+2+1+2
[8] = biological target: biotinylated single chain human FcRn (beta-2-microglobulin-human FcRn fusion polypeptide with (GGGGS)4-peptidic linker and C-terminal His(10)-Avi-tag) (human) (UniProt P61769); test: SPR, C1 chip, scFcRn about 80 RU, Interaction Map spot; 150 mM NaCl; intramolecular binding 1+2
[9] = biological target: biotinylated single chain human FcRn (beta-2-microglobulin-human FcRn fusion polypeptide with (GGGGS)4-peptidic linker and C-terminal His(10)-Avi-tag) (human) (UniProt P61769); test: SPR, C1 chip, scFcRn about 80 RU, Interaction Map spot; 150 mM NaCl; intermolecular binding 1+1′
[10] = biological target: biotinylated single chain human FcRn (beta-2-microglobulin-human FcRn fusion polypeptide with (GGGGS)4-peptidic linker and C-terminal His(10)-Avi-tag) (human) (UniProt P61769); test: SPR, C1 chip, scFcRn about 80 RU, Interaction Map spot; 150 mM NaCl; intramolecular binding 1+2+1+2
[11] = biological target: biotinylated single chain human FcRn (beta-2-microglobulin-human FcRn fusion polypeptide with (GGGGS)4-peptidic linker and C-terminal His(10)-Avi-tag) (human) (UniProt P61769); test: SPR, C1 chip, scFcRn amine-coupled about 80 RU, antibody as analyte, Interaction Map spot; 150 mM NaCl; intramolecular (FIG. 16 spot 1)
[12] = biological target: biotinylated single chain human FcRn (beta-2-microglobulin-human FcRn fusion polypeptide with (GGGGS)4-peptidic linker and C-terminal His(10)-Avi-tag) (human) (UniProt P61769); test: SPR, C1 chip, scFcRn amine-coupled about 80 RU, antibody as analyte, Interaction Map spot; 150 mM NaCl; intermolecular (FIG. 16 spot 2)
[13] = biological target: biotinylated single chain human FcRn (beta-2-microglobulin-human FcRn fusion polypeptide with (GGGGS)4-peptidic linker and C-terminal His(10)-Avi-tag) (human) (UniProt P61769); test: SPR, C1 chip, scFcRn about 80 RU, Interaction Map spot; 400 mM NaCl; intramolecular
[14] = biological target: biotinylated single chain human FcRn (beta-2-microglobulin-human FcRn fusion polypeptide with (GGGGS)4-peptidic linker and C-terminal His(10)-Avi-tag) (human) (UniProt P61769); test: SPR, C1 chip, scFcRn about 80 RU, Interaction Map spot; 400 mM NaCl; intermolecular
[15] = biological target: biotinylated single chain human FcRn (beta-2-microglobulin-human FcRn fusion polypeptide with (GGGGS)4-peptidic linker and C-terminal His(10)-Avi-tag) (human) (UniProt P61769); test: SPR, scFcRn on C1 chip, Interaction Map spot; 400 mM NaCl; intermolecular
[16] = biological target: biotinylated single chain human FcRn (beta-2-microglobulin-human FcRn fusion polypeptide with (GGGGS)4-peptidic linker and C-terminal His(10)-Avi-tag) (human) (UniProt P61769); test: SPR, scFcRn on C1 chip, Interaction Map spot; 150 mM NaCl; intramolecular (FIG. 16 spot 1)
[17] = biological target: biotinylated single chain human FcRn (beta-2-microglobulin-human FcRn fusion polypeptide with (GGGGS)4-peptidic linker and C-terminal His(10)-Avi-tag) (human) (UniProt P61769); test: SPR, scFcRn on C1 chip, Interaction Map spot; 400 mM NaCl; intramolecular
[18] = biological target: biotinylated single chain human FcRn (beta-2-microglobulin-human FcRn fusion polypeptide with (GGGGS)4-peptidic linker and C-terminal His(10)-Avi-tag) (human) (UniProt P61769); test: SPR, scFcRn on C1 chip, Interaction Map spot; 150 mM NaCl; intermolecular (FIG. 16 spot 2)
[19] = biological target: biotinylated single chain human FcRn (beta-2-microglobulin-human FcRn fusion polypeptide with (GGGGS)4-peptidic linker and C-terminal His(10)-Avi-tag) (human) (UniProt P61769); test: SPR, scFcRn on C1 chip, Interaction Map spot; 400 mM NaCl; intermolecular, second of two spots
[20] = biological target: biotinylated single chain human FcRn (beta-2-microglobulin-human FcRn fusion polypeptide with (GGGGS)4-peptidic linker and C-terminal His(10)-Avi-tag) (human) (UniProt P61769); test: SPR, scFcRn on C1 chip, Interaction Map spot; 400 mM NaCl; intermolecular, first of two spots

Sequence of biotinylated single chain human FcRn (beta-2-microglobulin-human FcRn fusion polypeptide with (GGGGS)4-peptidic linker and C-terminal His(10)-Avi-tag) (human) (P61769 other isoform, or with tags, fused parts or gaps limits assumed): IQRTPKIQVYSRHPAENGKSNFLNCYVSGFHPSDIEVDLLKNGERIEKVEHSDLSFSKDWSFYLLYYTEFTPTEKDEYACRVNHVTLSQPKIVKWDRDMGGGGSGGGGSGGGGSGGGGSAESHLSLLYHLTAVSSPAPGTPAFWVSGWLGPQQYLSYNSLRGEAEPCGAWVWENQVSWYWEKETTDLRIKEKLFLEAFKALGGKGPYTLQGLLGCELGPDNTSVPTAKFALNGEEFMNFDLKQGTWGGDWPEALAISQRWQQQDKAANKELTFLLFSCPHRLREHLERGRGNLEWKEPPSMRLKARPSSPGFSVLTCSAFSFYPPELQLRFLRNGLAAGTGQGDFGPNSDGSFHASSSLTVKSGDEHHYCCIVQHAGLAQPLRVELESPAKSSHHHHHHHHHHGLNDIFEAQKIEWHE

| Substance | Kd [1] [nM] | Kd [4] [nM] | Kd [5] [nM] | Kd [7] [nM] | Kd [8] [nM] | Kd [9] [nM] | Kd [10] [nM] | Kd [16] [nM] | Kd [17] [nM] | Kd [18] [nM] | further results |
| --- | --- | --- | --- | --- | --- | --- | --- | --- | --- | --- | --- |
| anti-digoxygenin Fabs connected to a wild-type IgG1 Fc-region (from UniProt P01857 104-330) (antibody) | 5.7 | 100 | 840 | 0.33 | 382 | 126 | 0.16 |  |  |  | Kd [2]: 4.8 nM; Kd [3]: 75 nM; Kd [6]: 1140 nM |
| anti-digoxygenin Fabs connected to an IgG1 Fc-region with the mutations M252Y/S254T/T256E in both Fc-region polypeptides (from UniProt P01857 104-330) (antibody) |  |  | 92 | 1.6 | 92 |  |  |  |  |  |  |
| anti-digoxygenin-Fabs added to the Fc-region with a single FcRn binding site (mutations I253A/H310A/H435A in one Fc-region polypeptide and wild-type in the respective other Fc-region polypeptide) (from UniProt P01857 104-330; P01857 104-330) (antibody) |  |  |  |  |  |  |  |  |  |  | Kd [11]: 1250 nM; Kd [12]: 20.5 nM; Kd [13]: 1060 nM; Kd [14]: 60 nM |
| asymmetric antibody with the mutations I253A/H310A/H435A in one Fc-region polypeptide and the mutations T307H/N434H in the respective other Fc-region polypeptide (from UniProt P01857 104-330; P01857 104-330) |  |  |  |  |  |  |  | 391 | 325 | 10.4 | Kd [19]: 39 nM; Kd [20]: 4.3 nM |

Further lines, with some results ahead:

| Kd [1] [nM] | Kd [4] [nM] | Kd [5] [nM] | Kd [7] [nM] | Kd [8] [nM] | Kd [9] [nM] | Kd [10] [nM] | Kd [16] [nM] | Kd [17] [nM] | Kd [18] [nM] | Substance | further results |
| --- | --- | --- | --- | --- | --- | --- | --- | --- | --- | --- | --- |
| 3 | 25 | 156 | 0.13 | 177 | 71 | 0.12 |  |  |  | anti-digoxygenin Fabs connected to an IgG1 Fc-region with the mutations T307H/N434H in both Fc-region polypeptides (from UniProt P01857 104-330) (antibody) |  |
|  |  |  |  |  |  |  | 184 | 166 | 4.7 | asymmetric antibody with the mutations I253A/H310A/H435A in one Fc-region polypeptide and the mutations M252Y/S254T/T256E in the respective other Fc-region polypeptide (from UniProt P01857 104-330; P01857 104-330) | Kd [15]: 6.2 nM |
